Reference: the RNAGym collection of RNA variant scans (doi:10.1073/pnas.2313332121)

B1: TPR t1 (parent)
chain: GACCAAUCUGCCCUCAGAGCUCGAGAACAUCUUCGGAUGCAGAGGAGGCAGGCUUCGGUGGCGCGAUAGCGCCAACGUCCUCAACCUCCAAUGCAUCCCACCACAUGAUGAUGCCUGAAGAGCCUUGGUUUUUUG

Variants of: B1
Assay: polymerase ribozyme fitness, log enrichment relative to wild type (log ratio); higher = more active; in vitro selection for triplet polymerase activity
In short: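 Only genotypes with ≥10 input reads and ≥1 read per output were kept after Illumina sequencing of input and output libraries. These libraries were PCR-built, transcribed mutants of each subunit of a heterodimeric triplet polymerase ribozyme, each put through one triplicate in vitro selection round with frozen incubation at −7 °C, gel excision of extended constructs, streptavidin-bead capture and RT-PCR. Fitness is a logarithmic ratio of genotype enrichment to wild-type enrichment, from inverse-variance-weighted replicate averages, with the logarithm in base 2.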

Variant	polymerase ribozyme fitness (log ratio)
A16G G44A C97G U112C U133A	-4.45
A16G U92G C98G C114A	-6.53
A18C C124U	-1.22
A16U C22U	-3.56
C15U C53A A83C	-1.46
A18C G60A U78G G110C U131A	-7.27
G17C G35A C123G G128U	-4.31
A18C G93C	-3.24
G17A A37U A50C	-4.99
A18G C70U A95U C124A	-4.13
G17A G63U U133C	-3.8
A18G C70A A91C G113A	-2.9
A18G G52C	-3.49
A16G G60U A90U	-2.82
A16U U92A A111C	-4.66
C15U C53G C64A C104A C124U	-6.1
G17U G71A G135U	-4.32
A16U G47C C49U G61C C82G C89U A91G C115A	-7.61
A16C C79U U87A C124U	-0.106
C15U G48A G57A C86A	-3.37
A16U G47C G71U	-4.17

Variant	polymerase ribozyme fitness (log ratio)
A18G G48A G63A G77A U81C A121U U126G	-5.32
G17A G52C G60C U81C C115G	-3.56
C15U C49A C72A U129C U134A G135C	-1.14
A18C G44A G61U C85G A121U	-2.31
C15U G63C	-2.18
G17C A46G U55C	-5.15
G17A C53U C89U C101A U109G	-6.85
G17U G48U C115G G120A	-1.53
G17A U54C G120U	-1.75
G17A A46C	-3.18
A16U C56G U125A	-3.24
C15U C56U U87G G113A U130A	-3.68
G17A A91C G93C G120C U131C	-1.37
G17A C40U	-3.88
A16G G52A U116C	0.826
G17U G52C C72U	-2.43
C15U C72A A83C C89U C97U	-3.4
A18C A24G G58A U92C	-5.73
A18C C56A C82A C94U U106C	-4.93
A18G U54A C88G A111C G113C U125A	-3.51
A18C C20A G93A G113A C124U U126G	-4.14

Variant	polymerase ribozyme fitness (log ratio)
G17U U38G G45A C88U C101U	-2.92
G17A G63A	-4.79
A18C G25U A41G C53U C124A	-6.92
A18C G60C	-2.9
A18C C86G	-3.25
G17U A37C C53A A83U A90U A91C	-3.91
C15U C62G C85A	-4.14
A16U A29U U30A A41C C49G A90G G120C	-6.59
A16U C73U A121C	0.586
C15U C56U G117C	-1.61
A16C C82U G110A C123G U132A	-4.33
A18C C62U U87C	-3.61
C15U G17U A74C U78G C80U C115A	-2.32
G17C U38G C70G A95C C99A C104U A105G G110C	-6.76
G17A C53A C124G	-0.146
G17C G63U	-4.39
A16G C40A C86U A90U A91C U106A U112G	-4.19
A16G A29G G44A U87G A121C	-2.16
C15U C88U A118G	-1.82
A18G U54A G77A U109G	-3.13
G17A G48C	-4.15

Variant	polymerase ribozyme fitness (log ratio)
C15U U87A	-2.53
C15U C53G C82A	-1.78
G17A G71U	-3.07
G17C C20A G63U	-4.87
A16U C124A	-0.305
A18C C62U	-2.83
A16G G69U C73A C115U	-1.93
A16C C89U U106A	-2.64
G17A G69C	-3.95
A16G C64U G77U	-1.55
A18C C62G U87C A90C G110C C115A	-7
G17A A46C G63U A74U C89G C102U A105U	-7.26
C15U G63A C79A C97U U112G	-4.94
A18C C56G C72U C124U	-0.737
A18C G47A A121U	-1.35
G17U C20U A26G G42C A83U C124U U130G	-5.83
G17A A43G	-3.39
C15U G52C C62G U78A	-3.9
G17U C20G G52A G113A A119G	-2.03
G17C A46G C124A	-1.43
A16U A41G U78G A100U	-3.98
